Experiment [1] concerns the target T1, Homo sapiens Beta-Nerve Growth Factor (beta-NGF) (Homo sapiens, UniProt P01138 122-241).
T1 construct: Biotinylated and held on neutravidin plates in the ELISA; also called huNGF; B-NGF
Description: Antigen binding ELISA: biotinylated NGF on neutravidin plates, anti-human Fc-HRP, OD 450 nm. The procedure: (§1) To identify and characterize antibodies and Fab fragments that bind to human NGF, antibody- and Fab-containing solutions were tested by ELISA. Briefly, neutravidin coated plates (Thermo Scientific), were blocked with ELISA buffer (0.1 mg/mL BSA, 1×PBS pH 7.4, 0.002% Tween 20 and 0.005% sodium azide) for 1 hr at room temperature. The plates were then coated with a 1 µg/mL biotinylated B-NGF solution in ELISA buffer for 1 hour at room temperature. This was followed by a wash step (3× using PBS plus 0.05% Tween 20) and a second block with ELISA buffer. The recombinant antibodies or Fabs were then added onto the plates and incubated for 1 hour at room temperature and then washed 3× with PBS/Tween solution. For development, an anti-human Fc-HRP or an anti-human Fab-fragment HRP (1:5000 dilution in ELISA buffer) was added onto the wells and incubated for 45 min at RT. After a 3× wash step with PBS/Tween solution, the plate was developed using TMB substrate for 3 minutes, stopped using 0.5M HCl, and read at 450 nm.

In experiment [2] the target is T1, Homo sapiens Beta-Nerve Growth Factor …. Description: antigen binding ELISA: biotinylated NGF on neutravidin plates, anti-human Fc-HRP, OD at 450 nm. As to the method: as §1

Numbering of substitutions follows the chain as printed.

T1 sequence (P01138 122-241): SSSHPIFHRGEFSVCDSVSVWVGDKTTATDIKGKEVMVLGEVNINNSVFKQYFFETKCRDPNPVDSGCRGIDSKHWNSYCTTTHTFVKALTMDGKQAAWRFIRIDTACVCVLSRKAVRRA

B1: Antibody Ab2 (antibody, human IgG1, kappa, N297A, V domains shown)
VH: EVQLVESGGGLVQPGGSLRLSCAASGFTVSSYAMSWVRQAPGKGLEWVGVITSIGSTVYASSAKGRFTISRDNSKNTLYLQMNSLRAEDTAVYYCARGYDDYDEMTYFNIWGQGTLVTVSS
VL: DIQMTQSPSTLSASVGDRVTITCQASQNIYSNLAWYQQKPGKAPKLLIYGASNLDAGVPSRFSGSGSGTEYTLTISSLQPDDFATYYCQSAFDSDSTENTFGGGTKVEIKR
With B1, in experiment [1], the midpoint of the response, the EC50, lay at 0.692 nM and the “EC50 (read off the curve)” value was about 0.7 nM.

B2: Antibody Ab14 (antibody, human IgG1, kappa, N297A, V domains shown)
VH: EVQLVESGGGLVQPGGSLRLSCAASGFTVSTYWMSWVRQAPGKGLEWVGDIYFSNEETNYASSAKGRFTISRDNSKNTLYLQMNSLRAEDTAVYYCARGSPDVDIGIDMWGPGTLVTVSS
VL: DIQMTQSPSSLSASVGDRVTITCQSSQNVYKNNYLSWYQQKPGKVPKLLIYKASTLASGVPSRFSGSGSGTDFTLTISSLQPEDVATYYCAGGYTSSSDNAFGGGTKVEIKR
B2: the EC50 in experiment [2] amounted to 0.646 nM.

B3: Antibody Ab20 (antibody, human IgG1, kappa, N297A, V domains shown)
VH: B2 VH with S62T, D104E, G106A, P112Q
VL: B2 VL
With B3, a half-maximal effect in experiment [2] (EC50) was put at 0.667 nM. The EC50 values of the last two molecules are within 1.5-fold of each other.

B4: Antibody Ab9 (antibody, human IgG1, kappa, N297A, V domains shown)
VH: QSVEESGGRLVTPGTPLTLTCTVSGIDLSMYSMGWVRQAPGKGLEYIGWISYGGTAYYASWAKGRFTISKTSTTVELKITSPTIEDTATYFCARETPVNYYLDIWGQGTLVTVSS
VL: AYDMTQTPASVSAAVGGTVTIKCQASENIGSYLAWYQQKPGQPPELLIYRASTLASGVPSRFKGSGSGTQFTLTISGVECADAATYYCQQGYNSENLDNAFGGGTEVVVKR
For B4, the half-maximal effective concentration (EC50) in experiment [2] came out at 0.221 nM. This EC50 lies about 3-fold lower than the previous one.

B5: Antibody Ab5 (antibody, human IgG1, kappa, N297A, V domains shown)
VH: QSVEESGGRLVTPGTPLTLTCTVSGFSLSNYAVGWVRQAPGKGLEWIGIIGRNGNTWYASWARGRFTISKTSTTVDLKITSPTSEDTATYFCARGYGRSVAYYVFNIWGPGTLVTVSS
VL: AYDMTQTPASVEVAVGGTVTIKCQASQSIYSNLAWYQQRPGQPPKLLIYDASTLESGVPSRFKGSGSGTEYTLTISGVECADAASYYCQQGFTVSDIDNAFGGGTEVVVKR
Turning to B5, in experiment [1], the EC50 came out at 0.253 nM and the “EC50 (read off the curve)” value was about 0.3 nM.

B6: Antibody Ab10 (antibody, human IgG1, kappa, N297A, V domains shown)
VH: QVQLVESGGGVVQPGRSLRLSCAASGFTFSMYSMGWVRQAPGKGLEYIGWISYGGTAYYASSAKGRFTISRDNSKNTLYLQMSSLRAEDTAVYYCARETPVNYYLDIWGQGTLVTVSS
VL: AYDMTQSPSSLSASVGDRVTITCQASENIGSYLAWYQQKPGKVPKLLIYRASTLASGVPSRFSGSGSGTDFTLTISSLQPEDVATYYCQQGYNSENLDNAFGGGTKVEIKR
In the case of B6, it took 0.306 nM to reach a half-maximal effect in experiment [2] (EC50).

B7: Antibody Ab8 (antibody, human IgG1, kappa, N297A, V domains shown)
VH: QVQLVESGGGVVQPGRSLRLSCAASGFTFSSYAMIWVRQAPGKGLEYIGYIDTDTSAYYASSVKGRFTISRDNSKNTLYLQMSSLRAEDTAVYYCARSYAAYGGYPATFDPWGQGTLVTVSS
VL: DIQMTQSPSSLSASVGDRVTITCQASEDIYNLLAWYQQKPGKVPKLLIYSASTLASGVPSRFSGSGSGTDYTLTISSLQPEDVATYYCQNNYLVTTYGVAFGGGTKVEIKR
For the molecule B7, it took 0.207 nM to reach a half-maximal effect in experiment [2] (EC50). This EC50 and that of the molecule before are within 1.5-fold of each other.

B8: Antibody Ab3 (antibody, human IgG1, kappa, N297A, V domains shown)
VH: QSVEESGGRLVTPGTPLTLTCTVSGFSLSSYVMIWVRQAPGKGLEYIGITWSAGTYYASWAKGRFTISKTSSTTVDLKITSPTTEDTATYFCAGGGGSIYDIWGPGTLVTVSS
VL: AVLTQTPSPVSAAMGDTVTIKCQSSQSVYKNNYLSWYQQKPGQPPRLLIYDASNLPSGVPSRFSGSGSGTQFTLTISGVQCDDAATYYCLGDYDDDADNAFGGGTEVVVKR
Consider B8, for which, in experiment [1], the EC50 was found to be 0.257 nM and the “EC50 (read off the curve)” value is about 0.3 nM.

B9: Antibody Ab4 (antibody, human IgG1, kappa, N297A, V domains shown)
VH: EVQLVESGGGLVQPGGSLRLSCAASGFTVSSYVMIWVRQAPGKGLEYIGITWSAGTYYASSAKGRFTISRDNSKNTLYLQMNSLRAEDTAVYYCAGGGGSIYDIWGQGTLVTVSS
VL: DIQMTQSPSTLSASVGDRVTITCQSSQSVYKNNYLSWYQQKPGKAPKLLIYDASNLPSGVPSRFSGSGSGTEFTLTISSLQPDDFATYYCLGDYDDDADNAFGGGTKVEIKR
Regarding B9, in experiment [1], it took 0.535 nM to reach a half-maximal effect (EC50) and the “EC50 (read off the curve)” value was about 0.05 nM.

B10: Antibody Ab1 (antibody, human IgG1, kappa, N297A, V domains shown)
VH: QSLEESGGRLVTPGTPLTLTCTVSGFSLSSYAMSWVRQAPGKGLEWIGVITSIGSTVYASWAKGRFTISKTSTTVDLKITSPTTEDTATYFCARGYDDYDEMTYFNIWGQGTLVTVSS
VL: ALVMTQTPSSVSAAVGGTVTINCQASQNIYSNLAWYQQRPGQRPKLLIYGASNLDAGVPSRFRGSGSGTEYTLTISDLECDDVGTYYCQSAFDSDSTENTFGGGTEVVVKR
As for B10, in experiment [1], the EC50 was 0.571 nM and the “EC50 (read off the curve)” value is about 0.6 nM.

B11: Antibody Ab15 (antibody, human IgG1, kappa, N297A, V domains shown)
VH: QSVEESGGRLVTPGTPLTLTCTVSGIDLSSYAMIWVRQAPGKGLEYIGIIWSGGTYYATWAKGRFTISKTSTTVDLQITSPTTEDAATYFCAAGGGSIYDVWGPGTLVTVSS
VL: AAVLTQTPSPVSAAVGDTVTIKCQSSQSVYKNNYLSWYQQKPGQPPKLLIYDASNLPSGVPSRFSGSGSGTQFTLTISGVQCDDAATYYCLGDYDDDTDNGFGGGTEVVVKR
In experiment [2], B11 gave an EC50 of 0.239 nM. That is a sub-nanomolar value.

B12: Antibody Ab11 (antibody, human IgG1, kappa, N297A, V domains shown)
VH: QSLEESGGRLVTPGTPLTLTCTASGFSLSGYDMSWVRQAPGKGLEYIGLISYDGNTYYATWAKGRFTISKTSTTVDLKITSPTTEDTATYFCARSLYAGPNAGIGPFNIWGQGTLVTVSS
VL: AFELTQTPSSVEAAVGGTVTIKCQASQNIVTNLAWYQQKPGQPPKLLIYGASTLASGVSSRFKGSGSGTQFTLTISDLECADAATYFCQSYDGFNSAGFGGGTEVVVKR
B12 returned an EC50 in experiment [2] of 0.379 nM.

B13: Antibody Ab17 (antibody, human IgG1, kappa, N297A, V domains shown)
VH: QSLEESGGRLVTPGGSLTLTCAASGFSLTGYNLVWVRQAPGKGLEWIGFISYGDTTYYASWAKGRFTISKTSTTVTLTITDLQPSDTGTYFCARETANTYDYGIWGPGTLVTVSS
VL: AIEMTQTPFSVSAAVGGTVTIKCQASQTISNYLAWYQQKPGQPPKLLIYGASNLESGVPSRFKGSGSGTQFTLTISDLECDDAATYYCQQGYTISNVDNNVFGGGTEVVVKR
For B13, the EC50 in experiment [2] worked out at 0.7 nM. This EC50 lies about 1.8-fold higher than the previous one.

B14: Antibody Ab12 (antibody, human IgG1, kappa, N297A, V domains shown)
VH: QVQLVESGGGVVQPGRSLRLSCAASGFSLSGYDMSWVRQAPGKGLEWVGLISYDGNTYYATSAKGRFTISRDNSKNTLYLQMSSLRAEDTAVYYCARSLYAGPNAGIGPFNIWGQGTLVTVSS
VL: AFQMTQSPSSLSASVGDRVTITCQASQNIVTNLAWYQQKPGKVPKLLIYGASTLASGVPSRFSGSGSGTDFTLTISSLQPEDVATYYCQSYDGFNSAGFGGGTKVEIKR
In experiment [2], B14 returned an EC50 of 0.78 nM.

B15: Antibody Ab7 (antibody, human IgG1, kappa, N297A, V domains shown)
VH: QEQLKESGGRLVTPGTPLTLTCTVSGFSLSSYAMIWVRQAPGKGLEYIGYIDTDTSAYYASWVKGRFTISRTSTTVDLKITSPTTEDTATYFCARSYAAYGGYPATFDPWGPGTLVTVSS
VL: DVVMTQTPASVSQPVGGTVTIKCQASEDIYNLLAWYQQKPGQPPKLLIYSASTLASGVPSRFKGSGSGTEYTLTISGLECADAATYYCQNNYLVTTYGVAFGGGTEVVVKR
Molecule B15 came in with an EC50 in experiment [2] of 0.203 nM.

B16: Antibody Ab16 (antibody, human IgG1, kappa, N297A, V domains shown)
VH: QSVEEFGGRLVTPGTPLTLTCTVSGFSLNNYAMTWVRQAPGKGLEWIGIIGSIGTTYYASWAKGRFFISKTSTTVDLKIISPTTEDTATYFCARDAGVTVDGYGYYFNIWGPGTLVTVSS
VL: ALVMTQTPSSTSEPVGGTVTINCQASQNIGNDLSWYQQKPGQPPELLIYSTSKLATGVPKRFSGSRSGTQFTLTISDLECDDAATYYCLGVYSYISDDGNAFGGGTEVVVKR
As to B16, the EC50 in experiment [2] was 0.358 nM.

B17: Antibody Ab6 (antibody, human IgG1, kappa, N297A)
heavy: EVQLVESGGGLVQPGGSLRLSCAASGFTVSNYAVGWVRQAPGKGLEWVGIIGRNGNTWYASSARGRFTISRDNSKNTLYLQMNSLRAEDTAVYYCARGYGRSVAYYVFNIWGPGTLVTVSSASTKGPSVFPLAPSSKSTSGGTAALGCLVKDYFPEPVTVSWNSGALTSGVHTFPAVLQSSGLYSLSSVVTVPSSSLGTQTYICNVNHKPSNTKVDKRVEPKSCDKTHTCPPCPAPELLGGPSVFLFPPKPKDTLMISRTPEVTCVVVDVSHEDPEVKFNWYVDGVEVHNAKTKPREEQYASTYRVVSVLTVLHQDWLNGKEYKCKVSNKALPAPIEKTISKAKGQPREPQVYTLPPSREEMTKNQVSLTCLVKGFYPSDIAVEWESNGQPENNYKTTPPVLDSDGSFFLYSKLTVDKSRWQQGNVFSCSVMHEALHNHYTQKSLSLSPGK
light: DIQMTQSPSTLSASVGDRVTITCQASQSIYSNLAWYQQKPGKAPKLLIYDASTLESGVPSRFSGSGSGTEYTLTISSLQPDDFATYYCQQGFTVSDIDNAFGGGTKVEIKRTVAAPSVFIFPPSDEQLKSGTASVVCLLNNFYPREAKVQWKVDNALQSGNSQESVTEQDSKDSTYSLSSTLTLSKADYEKHKVYACEVTHQGLSSPVTKSFNRGEC
As to B17, in experiment [1], the EC50 worked out at 0.256 nM and the “EC50 (read off the curve)” value is about 0.3 nM.

B18: Antibody Ab18 (antibody, human IgG1, kappa, N297A, V domains shown)
VH: EVQLVESGGGLVQPGGSLRLSCAASGFTVSGYNLVWVRQAPGKGLEWVGFISYGDTTYYASSAKGRFTISRDNSKNTLYLQMNSLRAEDTAVYYCARETANTYDYGIWGQGTLVTVSS
VL: DIQMTQSPSTLSASVGDRVTITCQASQTISNYLAWYQQKPGKAPKLLIYGASNLESGVPSRFSGSGSGTEFTLTISSLQPDDFATYYCQQGYTISNVDNNVFGGGTKVEIKR
With B18, the midpoint of the response in experiment [2], the EC50, lay at 0.561 nM. This counts as sub-nanomolar.

B19: Antibody Ab13 (antibody, human IgG1, kappa, N297A, V domains shown)
VH: QSVEASGGRLVTPGTPLTLTCTASGFSLSTYWMSWVRQAPGKGLEWIGDIYFSNEETNYASWAKGRFTISKTSTTVDLNVISPTTEDTATYFCARGSPDVDIGIDMWGPGTLVTVSS
VL: AAVLTQTPSPVSAAVGGTVSISCQSSQNVYKNNYLSWYQQKPGQPPKLLIYKASTLASGVPSRFKGGGSGTDFTLTISDVQCDAAATYYCAGGYTSSSDNAFGGGTEVVVKR
With B19, the EC50 in experiment [2] came to 0.339 nM.

B20: Antibody Ab19 (antibody, human IgG1, kappa, N297A, V domains shown)
VH: B19 VH with T12M, T15G, P16S, S61T, D101E, G103A, P109Q
VL: B19 VL with G67S, T95S
B20 displayed an EC50 in experiment [2] of 0.441 nM.
